Series [1] deals with T1, FBF-2 (164-575) (C. elegans, UniProt Q09312 164-575).
T1 sequence (looked up): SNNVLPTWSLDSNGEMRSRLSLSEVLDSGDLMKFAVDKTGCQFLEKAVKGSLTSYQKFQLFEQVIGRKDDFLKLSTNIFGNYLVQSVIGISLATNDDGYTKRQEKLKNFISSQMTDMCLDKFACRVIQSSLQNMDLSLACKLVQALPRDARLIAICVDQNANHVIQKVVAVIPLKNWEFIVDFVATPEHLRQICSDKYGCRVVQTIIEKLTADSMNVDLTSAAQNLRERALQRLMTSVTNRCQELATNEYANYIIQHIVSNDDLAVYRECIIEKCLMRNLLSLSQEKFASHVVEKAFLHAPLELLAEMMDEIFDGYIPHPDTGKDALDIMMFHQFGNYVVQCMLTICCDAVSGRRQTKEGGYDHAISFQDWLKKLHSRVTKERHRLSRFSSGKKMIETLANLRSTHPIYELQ
As to the kind of experiment: NMR, [15N,1H]-HSQC free against bound.

The target in series [2] is T2, FBF-1 (164-566) (C. elegans, UniProt Q9N5M6 164-566).
T2 sequence (looked up): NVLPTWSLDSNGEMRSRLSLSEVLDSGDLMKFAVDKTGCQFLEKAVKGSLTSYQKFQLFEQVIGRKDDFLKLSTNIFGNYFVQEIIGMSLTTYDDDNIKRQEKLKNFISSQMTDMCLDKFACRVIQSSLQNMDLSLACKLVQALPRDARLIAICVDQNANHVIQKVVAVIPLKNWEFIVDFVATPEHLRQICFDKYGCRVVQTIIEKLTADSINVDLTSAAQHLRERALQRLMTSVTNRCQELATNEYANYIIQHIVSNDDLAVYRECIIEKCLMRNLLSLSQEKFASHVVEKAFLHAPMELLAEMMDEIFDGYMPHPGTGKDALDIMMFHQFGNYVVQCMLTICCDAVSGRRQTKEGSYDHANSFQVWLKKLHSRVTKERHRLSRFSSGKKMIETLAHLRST
As to the kind of experiment: cross-linking.

Series [3] addresses T3, FBF-2 (164-566) (C. elegans, UniProt Q09312 164-566).
T3 sequence (looked up): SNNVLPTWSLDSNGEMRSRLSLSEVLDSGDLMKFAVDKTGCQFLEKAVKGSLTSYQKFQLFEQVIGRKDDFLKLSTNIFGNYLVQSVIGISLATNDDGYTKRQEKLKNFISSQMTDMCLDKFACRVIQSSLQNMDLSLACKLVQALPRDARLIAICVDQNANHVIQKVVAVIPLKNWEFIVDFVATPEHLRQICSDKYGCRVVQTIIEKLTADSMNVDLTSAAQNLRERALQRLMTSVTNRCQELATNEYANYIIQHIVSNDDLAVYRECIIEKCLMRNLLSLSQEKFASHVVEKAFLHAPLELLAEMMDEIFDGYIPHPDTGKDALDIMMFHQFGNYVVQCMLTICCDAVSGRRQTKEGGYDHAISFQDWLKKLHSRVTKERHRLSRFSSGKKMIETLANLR
As to the kind of experiment: cross-linking.

The target of series [4] is T4, FBF-2 (164-575) (Caenorhabditis elegans, UniProt Q09312 164-575).
T4 sequence: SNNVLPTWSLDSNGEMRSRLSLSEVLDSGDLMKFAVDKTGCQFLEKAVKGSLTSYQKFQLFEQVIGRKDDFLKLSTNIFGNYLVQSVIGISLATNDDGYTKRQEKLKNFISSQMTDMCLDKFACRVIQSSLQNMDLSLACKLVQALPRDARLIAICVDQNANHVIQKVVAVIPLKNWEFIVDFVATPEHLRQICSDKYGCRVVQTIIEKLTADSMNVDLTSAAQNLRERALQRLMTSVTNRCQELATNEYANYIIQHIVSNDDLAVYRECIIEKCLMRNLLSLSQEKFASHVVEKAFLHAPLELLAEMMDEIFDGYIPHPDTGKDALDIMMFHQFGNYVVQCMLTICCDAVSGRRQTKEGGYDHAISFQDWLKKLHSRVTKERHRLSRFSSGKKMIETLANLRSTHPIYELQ
As to the kind of experiment: EMSA.

Series [5] deals with T5, FBF-2 (164-575);MBP-CPB-1 (1-80) (Caenorhabditis elegans;Caenorhabditis …, UniProt Q09312;Q03571 164-575;1-80, |).
T5 sequence 1: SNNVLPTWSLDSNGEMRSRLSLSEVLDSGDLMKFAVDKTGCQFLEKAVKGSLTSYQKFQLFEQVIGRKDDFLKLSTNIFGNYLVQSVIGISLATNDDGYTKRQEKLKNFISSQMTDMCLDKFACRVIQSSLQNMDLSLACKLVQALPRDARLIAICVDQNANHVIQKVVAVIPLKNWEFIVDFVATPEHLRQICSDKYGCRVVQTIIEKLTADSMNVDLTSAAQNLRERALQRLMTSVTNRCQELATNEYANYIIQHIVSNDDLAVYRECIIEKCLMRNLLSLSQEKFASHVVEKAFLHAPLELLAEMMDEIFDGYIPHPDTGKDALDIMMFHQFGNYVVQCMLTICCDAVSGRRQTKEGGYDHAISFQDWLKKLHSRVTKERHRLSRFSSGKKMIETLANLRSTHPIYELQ
T5 sequence 2: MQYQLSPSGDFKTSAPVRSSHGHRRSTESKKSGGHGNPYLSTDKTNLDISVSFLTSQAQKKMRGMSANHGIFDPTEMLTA
The series can be described thus: EMSA. (In general: In EMSA bound probe runs differently from free probe, usually more slowly.)

The target of series [6] is fluorescently labeled wild-type CPB-1(19-80) (C. elegans) (UniProt Q03571). As to the kind of experiment: fluorescence polarisation.
Series [7] addresses T2, FBF-1 (164-566). The series can be described thus: pull-down.
In series [8] the target is T3, FBF-2 (164-566). As to the kind of experiment: pull-down.
The target of series [9] is T1, FBF-2 (164-575). As to the kind of experiment: fluorescence polarisation. On the technique in general: Polarisation of emitted light reports the rotation of a fluorescent probe.

Data on 14 molecules can be found in paper PMC3568192 (Journal of molecular biology, 2012).

Where no end group is shown, it is not given here.

In the case of SGGHGNPYLSTDKTNLDISVSFLTSQAQKKMRGMSANHGIFDPTEMLTA (domain or fragment, C. elegans, UniProt Q03571 32-80, looked up, also: 15N labeled) [15N-labeled CPB-1(32-80)], in the series with FBF-2 (164-575) [1], the binding result is “binds”.

B1: CPB-1(1-80) (domain or fragment, C. elegans, UniProt Q03571 1-80, looked up)
chain: MQYQLSPSGDFKTSAPVRSSHGHRRSTESKKSGGHGNPYLSTDKTNLDISVSFLTSQAQKKMRGMSANHGIFDPTEMLTA
Turning to B1, the “stoichiometry N” value with FBF-1 (164-566) [2] and with FBF-2 (164-566) [3] was 1 throughout. Turning to CGAAAUAAACAUUUUGUACCAUUCAGUC (ssRNA) [cyb-1 RNA], the Kd came out at 24 nM with FBF-2 (164-575) [4] and 5.8 nM in series [5].

B2: FBF-2 (164-575) (domain or fragment)
chain: SNNVLPTWSLDSNGEMRSRLSLSEVLDSGDLMKFAVDKTGCQFLEKAVKGSLTSYQKFQLFEQVIGRKDDFLKLSTNIFGNYLVQSVIGISLATNDDGYTKRQEKLKNFISSQMTDMCLDKFACRVIQSSLQNMDLSLACKLVQALPRDARLIAICVDQNANHVIQKVVAVIPLKNWEFIVDFVATPEHLRQICSDKYGCRVVQTIIEKLTADSMNVDLTSAAQNLRERALQRLMTSVTNRCQELATNEYANYIIQHIVSNDDLAVYRECIIEKCLMRNLLSLSQEKFASHVVEKAFLHAPLELLAEMMDEIFDGYIPHPDTGKDALDIMMFHQFGNYVVQCMLTICCDAVSGRRQTKEGGYDHAISFQDWLKKLHSRVTKERHRLSRFSSGKKMIETLANLRSTHPIYELQ
Molecule B2 yielded a dissociation constant (Kd) in series [6] of 49 nM.

B3: FBF-2 (164-575) Y479A (domain or fragment)
chain: SNNVLPTWSLDSNGEMRSRLSLSEVLDSGDLMKFAVDKTGCQFLEKAVKGSLTSYQKFQLFEQVIGRKDDFLKLSTNIFGNYLVQSVIGISLATNDDGYTKRQEKLKNFISSQMTDMCLDKFACRVIQSSLQNMDLSLACKLVQALPRDARLIAICVDQNANHVIQKVVAVIPLKNWEFIVDFVATPEHLRQICSDKYGCRVVQTIIEKLTADSMNVDLTSAAQNLRERALQRLMTSVTNRCQELATNEYANYIIQHIVSNDDLAVYRECIIEKCLMRNLLSLSQEKFASHVVEKAFLHAPLELLAEMMDEIFDGAIPHPDTGKDALDIMMFHQFGNYVVQCMLTICCDAVSGRRQTKEGGYDHAISFQDWLKKLHSRVTKERHRLSRFSSGKKMIETLANLRSTHPIYELQ
B3 yielded a fold increase in Kd relative to wild-type FBF in series [6] of more than 60 fold.

B4: FBF-2 (164-575) T485A (domain or fragment)
chain: SNNVLPTWSLDSNGEMRSRLSLSEVLDSGDLMKFAVDKTGCQFLEKAVKGSLTSYQKFQLFEQVIGRKDDFLKLSTNIFGNYLVQSVIGISLATNDDGYTKRQEKLKNFISSQMTDMCLDKFACRVIQSSLQNMDLSLACKLVQALPRDARLIAICVDQNANHVIQKVVAVIPLKNWEFIVDFVATPEHLRQICSDKYGCRVVQTIIEKLTADSMNVDLTSAAQNLRERALQRLMTSVTNRCQELATNEYANYIIQHIVSNDDLAVYRECIIEKCLMRNLLSLSQEKFASHVVEKAFLHAPLELLAEMMDEIFDGYIPHPDAGKDALDIMMFHQFGNYVVQCMLTICCDAVSGRRQTKEGGYDHAISFQDWLKKLHSRVTKERHRLSRFSSGKKMIETLANLRSTHPIYELQ
In turn, B4 returned a Kd in [6] of 1260 nM.

B5: FBF-2 (164-575) I480A (domain or fragment)
chain: SNNVLPTWSLDSNGEMRSRLSLSEVLDSGDLMKFAVDKTGCQFLEKAVKGSLTSYQKFQLFEQVIGRKDDFLKLSTNIFGNYLVQSVIGISLATNDDGYTKRQEKLKNFISSQMTDMCLDKFACRVIQSSLQNMDLSLACKLVQALPRDARLIAICVDQNANHVIQKVVAVIPLKNWEFIVDFVATPEHLRQICSDKYGCRVVQTIIEKLTADSMNVDLTSAAQNLRERALQRLMTSVTNRCQELATNEYANYIIQHIVSNDDLAVYRECIIEKCLMRNLLSLSQEKFASHVVEKAFLHAPLELLAEMMDEIFDGYAPHPDTGKDALDIMMFHQFGNYVVQCMLTICCDAVSGRRQTKEGGYDHAISFQDWLKKLHSRVTKERHRLSRFSSGKKMIETLANLRSTHPIYELQ
Take B5: the Kd in [6] amounted to 778 nM. Regarding SGGHGNPYLSTDKTNLDISVSFLTSQAQK (domain or fragment, C. elegans, UniProt Q03571 32-60, looked up) [CPB-1(32-60)], the binding result with FBF-1 (164-566) [7] and with FBF-2 (164-566) [8] was “binds” in each case.

B6: CPB-1(19-80) (domain or fragment, C. elegans, UniProt Q03571 19-80, looked up)
chain: SSHGHRRSTESKKSGGHGNPYLSTDKTNLDISVSFLTSQAQKKMRGMSANHGIFDPTEMLTA
B6: the IC50 with FBF-2 (164-575) [9] was 1150 ± 50 nM.

B7: CPB-1(19-80) L40A (domain or fragment, C. elegans, UniProt Q03571 19-80, looked up)
chain: SSHGHRRSTESKKSGGHGNPYASTDKTNLDISVSFLTSQAQKKMRGMSANHGIFDPTEMLTA
On to B7, for which the binding result in the series with FBF-2 (164-575) [9] is on record as “binds”.

B8: CPB-1(19-80) I49A (domain or fragment, C. elegans, UniProt Q03571 19-80, looked up)
chain: SSHGHRRSTESKKSGGHGNPYLSTDKTNLDASVSFLTSQAQKKMRGMSANHGIFDPTEMLTA
For B8, in the series with FBF-2 (164-575) [9], the binding result was “binds”.

B9: CPB-1(19-80) L47A (domain or fragment, C. elegans, UniProt Q03571 19-80, looked up)
chain: SSHGHRRSTESKKSGGHGNPYLSTDKTNADISVSFLTSQAQKKMRGMSANHGIFDPTEMLTA
Regarding B9, the binding result with FBF-2 (164-575) [9] is given as “binds”.

B10: CPB-1(19-80) K44A (domain or fragment, C. elegans, UniProt Q03571 19-80, looked up)
chain: SSHGHRRSTESKKSGGHGNPYLSTDATNLDISVSFLTSQAQKKMRGMSANHGIFDPTEMLTA
Regarding B10, the binding result with FBF-2 (164-575) [9] is listed as “binds”.

B11: CPB-1(19-80) T45A (domain or fragment, C. elegans, UniProt Q03571 19-80, looked up)
chain: SSHGHRRSTESKKSGGHGNPYLSTDKANLDISVSFLTSQAQKKMRGMSANHGIFDPTEMLTA
In the case of B11, the binding result with FBF-2 (164-575) [9] is “binds”.

By stoichiometry N is commonly meant the number of molecules, sites or subunits per partner or assembly. The Kd is the constant that tells how readily two partners part at equilibrium. What is called IC50 is the concentration that gives 50% inhibition. A lower IC50 goes with greater potency in that assay.
